Experiments:
[1] = target: T1, KATP channel (SUR1/KATP complex) in insulinoma HIT cells (Cricetus cricetus, UniProt Q09427); test: KATP whole-cell patch-clamp currents in insulinoma HIT cells; format: cell-based
T1 construct: in HIT cells on the endogenous KATP whole-cell currents; endogenous in cells; host or cells: insulinoma HIT cells
Description: Representative KATP whole-cell patch-clamp currents recorded from the control and syntaxin-1A overespressing HIT cells are shown in FIG. 6A. Cells were stimulated by voltage steps from −140 to 0 mV from a holding potential of −50 mV. […] All currents were recorded 15 min after the formation of the whole-cell configuration when a cell interior exchanged with the pipette solution containing low (0.3 mM) ATP concentration. […] An asterisk indicates the first minutes of recording after obtaining the whole-cell configuration. Pipette solution contains 3 mM MgADP and only 0.3 mM ATP. […] Currents were measured at −120 mV, and normalized to the maximal current (Imax).

[2] = system: NBF-1 and NBF-2 of SUR-1; test: GST pull-down binding of Syn-1A or SNAP-25 with GST-NBF-1 / GST-NBF-2 of SUR-1, Western blot; settings: 375 pmol protein each, 4° C., 2 hours, glutathione beads
Description: (§1) GST (control) or GST-NBF-1 or GST-NBF-2 (375 pmol protein)of SUR-1 or SUR-2A, bound to glutathione beads, was incubated with Syn-1A or SNAP-25 (375 pmol protein) in 25 mM Hepes (pH 7.4) with 50 mM NaCl, 0.1% gelatin, 0.1% Triton X-100, 0.1% BSA and 0.2% β-mercaptoethanol at 4° C. for 2 hours. Following washing the beads three times with 20 mM Hepes(pH 7.4) with 150 mM KoAc, 1 mM EDTA, 1 mM MgCl2, 5% glycerol and 0.1% Triton X-100, the samples were subjected to 15% SDS-PAGE, transferred to nitrocellulose membrane and probed with antibody against Syn-1A (1:2000) or SNAP-25 (1:1000).

[3] = system: NBF-1 and NBF-2 of SUR-2A; test: GST pull-down binding of Syn-1A or SNAP-25 with GST-NBF-1 / GST-NBF-2 of SUR-2A, Western blot; settings: 375 pmol protein each, 4° C., 2 hours, glutathione beads
Description: as §1

[4] = target: T2, KATP channel in rat pancreatic beta cells (Rattus norvegicus, UniProt Q09429); test: KATP whole-cell patch-clamp currents in freshly isolated rat pancreatic beta cells; format: cell-based
T2 construct: recorded from the freshly isolated rat pancreatic beta cells; endogenous in cells; host or cells: freshly isolated rat pancreatic beta cells
Description: Representative KATP whole-cell patch-clamp currents recorded from the freshly isolated rat pancreatic beta cells in the absence (control) and presence of recombinant syntaxin-1A protein are shown in FIG. 7A. Cells were stimulated by voltage steps from −140 to −20 mV (or 0 mV) from a holding potential of −50 mV. […] Recombinant syntaxin-1A (10^−3 M) was dialyzed into the cell interior through the patch pipette. […] All currents were recorded 15 min after the formation of the whole-cell configuration when a cell interior exchanged with the pipette solution containing low (0.3 mM) ATP concentration that under control conditions opens the KATP channel.

T1 sequence (Q09427 whole entry, one chain of several): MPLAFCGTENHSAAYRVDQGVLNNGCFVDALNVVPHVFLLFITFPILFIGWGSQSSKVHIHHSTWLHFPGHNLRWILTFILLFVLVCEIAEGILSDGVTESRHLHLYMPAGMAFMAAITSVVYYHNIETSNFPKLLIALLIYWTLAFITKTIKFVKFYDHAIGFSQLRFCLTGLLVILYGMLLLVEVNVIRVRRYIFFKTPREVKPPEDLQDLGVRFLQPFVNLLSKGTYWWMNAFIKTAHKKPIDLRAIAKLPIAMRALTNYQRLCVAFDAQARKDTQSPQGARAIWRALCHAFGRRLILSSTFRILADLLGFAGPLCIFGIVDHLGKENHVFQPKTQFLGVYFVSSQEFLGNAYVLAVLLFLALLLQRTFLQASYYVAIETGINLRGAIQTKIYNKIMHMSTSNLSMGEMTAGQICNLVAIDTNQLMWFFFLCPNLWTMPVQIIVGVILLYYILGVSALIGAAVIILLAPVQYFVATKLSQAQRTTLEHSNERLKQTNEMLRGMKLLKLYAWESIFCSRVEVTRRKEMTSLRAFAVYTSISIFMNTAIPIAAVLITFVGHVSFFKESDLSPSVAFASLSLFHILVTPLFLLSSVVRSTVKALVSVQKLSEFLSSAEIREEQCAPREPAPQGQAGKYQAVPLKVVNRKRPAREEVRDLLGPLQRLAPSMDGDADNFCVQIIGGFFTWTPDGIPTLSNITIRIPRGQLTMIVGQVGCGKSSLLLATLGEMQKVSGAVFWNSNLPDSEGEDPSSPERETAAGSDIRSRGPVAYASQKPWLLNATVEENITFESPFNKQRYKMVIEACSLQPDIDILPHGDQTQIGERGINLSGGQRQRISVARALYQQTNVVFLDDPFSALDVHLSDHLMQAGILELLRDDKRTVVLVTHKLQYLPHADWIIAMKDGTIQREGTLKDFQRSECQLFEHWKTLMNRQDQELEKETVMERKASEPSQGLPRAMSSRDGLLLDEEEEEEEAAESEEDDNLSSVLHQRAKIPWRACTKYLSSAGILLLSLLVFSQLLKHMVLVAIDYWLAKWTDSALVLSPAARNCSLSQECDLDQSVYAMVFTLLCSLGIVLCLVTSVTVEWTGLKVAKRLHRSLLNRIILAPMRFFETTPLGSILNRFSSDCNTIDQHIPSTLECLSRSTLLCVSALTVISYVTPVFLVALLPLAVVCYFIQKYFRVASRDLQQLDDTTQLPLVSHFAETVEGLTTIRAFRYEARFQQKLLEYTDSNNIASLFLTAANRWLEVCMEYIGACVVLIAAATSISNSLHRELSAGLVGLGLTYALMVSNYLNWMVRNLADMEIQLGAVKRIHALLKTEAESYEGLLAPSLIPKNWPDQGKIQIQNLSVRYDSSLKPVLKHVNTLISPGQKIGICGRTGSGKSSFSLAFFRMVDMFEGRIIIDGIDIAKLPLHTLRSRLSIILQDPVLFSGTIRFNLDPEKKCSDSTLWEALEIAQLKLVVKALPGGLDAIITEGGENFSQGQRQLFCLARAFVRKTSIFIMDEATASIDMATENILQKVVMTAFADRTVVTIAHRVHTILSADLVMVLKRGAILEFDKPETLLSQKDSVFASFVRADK
T2 sequence (Q09429 whole entry): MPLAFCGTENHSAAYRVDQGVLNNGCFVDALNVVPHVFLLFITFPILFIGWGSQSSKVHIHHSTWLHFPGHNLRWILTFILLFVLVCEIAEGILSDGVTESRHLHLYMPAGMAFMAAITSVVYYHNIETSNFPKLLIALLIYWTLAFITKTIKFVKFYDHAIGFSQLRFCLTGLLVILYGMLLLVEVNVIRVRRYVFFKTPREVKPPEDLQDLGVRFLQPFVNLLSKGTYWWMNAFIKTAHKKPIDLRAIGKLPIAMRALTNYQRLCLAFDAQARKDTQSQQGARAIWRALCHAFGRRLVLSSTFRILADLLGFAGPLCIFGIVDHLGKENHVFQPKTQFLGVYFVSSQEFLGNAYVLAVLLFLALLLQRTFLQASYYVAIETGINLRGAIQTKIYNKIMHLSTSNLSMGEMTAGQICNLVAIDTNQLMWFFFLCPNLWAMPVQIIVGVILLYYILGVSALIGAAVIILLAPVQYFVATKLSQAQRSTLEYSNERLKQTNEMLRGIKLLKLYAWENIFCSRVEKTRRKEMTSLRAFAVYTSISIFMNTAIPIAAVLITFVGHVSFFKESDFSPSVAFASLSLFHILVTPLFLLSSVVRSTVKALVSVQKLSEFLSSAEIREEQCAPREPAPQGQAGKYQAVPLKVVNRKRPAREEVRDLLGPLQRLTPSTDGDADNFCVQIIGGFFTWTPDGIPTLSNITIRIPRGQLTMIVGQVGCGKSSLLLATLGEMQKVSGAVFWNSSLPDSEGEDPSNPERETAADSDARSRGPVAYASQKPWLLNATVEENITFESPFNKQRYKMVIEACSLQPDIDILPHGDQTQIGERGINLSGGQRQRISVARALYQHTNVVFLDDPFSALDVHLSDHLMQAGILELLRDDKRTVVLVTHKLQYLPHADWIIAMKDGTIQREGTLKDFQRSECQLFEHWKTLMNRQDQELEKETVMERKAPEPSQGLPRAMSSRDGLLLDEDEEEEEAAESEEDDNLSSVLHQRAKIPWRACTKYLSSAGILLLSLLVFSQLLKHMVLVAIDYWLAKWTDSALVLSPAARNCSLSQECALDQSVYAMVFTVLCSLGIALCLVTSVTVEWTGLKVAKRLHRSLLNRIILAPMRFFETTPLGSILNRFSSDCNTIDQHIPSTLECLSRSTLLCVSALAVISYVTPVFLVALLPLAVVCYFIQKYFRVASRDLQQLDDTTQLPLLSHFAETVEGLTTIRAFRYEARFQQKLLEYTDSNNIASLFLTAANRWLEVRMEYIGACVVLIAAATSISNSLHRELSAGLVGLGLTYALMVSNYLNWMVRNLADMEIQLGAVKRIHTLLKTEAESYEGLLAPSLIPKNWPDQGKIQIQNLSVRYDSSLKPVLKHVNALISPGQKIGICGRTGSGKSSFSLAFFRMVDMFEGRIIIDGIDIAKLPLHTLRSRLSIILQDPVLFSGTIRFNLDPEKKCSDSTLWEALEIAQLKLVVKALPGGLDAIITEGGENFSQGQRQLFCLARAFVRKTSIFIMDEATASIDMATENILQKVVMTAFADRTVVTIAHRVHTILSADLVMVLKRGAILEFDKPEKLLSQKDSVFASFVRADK
T2 sequence (P70673 whole entry partner): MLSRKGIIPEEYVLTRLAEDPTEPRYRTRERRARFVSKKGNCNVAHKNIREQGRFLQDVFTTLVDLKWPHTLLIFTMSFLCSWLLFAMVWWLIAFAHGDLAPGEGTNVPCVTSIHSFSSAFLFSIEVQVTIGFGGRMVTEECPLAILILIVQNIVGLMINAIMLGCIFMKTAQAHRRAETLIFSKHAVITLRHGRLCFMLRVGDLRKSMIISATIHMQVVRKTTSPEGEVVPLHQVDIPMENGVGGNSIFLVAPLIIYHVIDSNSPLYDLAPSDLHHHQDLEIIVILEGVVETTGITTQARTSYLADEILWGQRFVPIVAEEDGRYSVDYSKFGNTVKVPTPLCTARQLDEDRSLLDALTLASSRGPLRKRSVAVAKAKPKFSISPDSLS

| Substance | reversal of syntaxin-1A inhibited KATP current at t=15 min compared with t=0 min ([1]; MgADP 3 mM in pipette, 0.3 mM ATP, syntaxin-1A overexpressing HIT cells, measured at −120 mV) [%] | binding (pull down) to NBF-1 and NBF-2 of SUR1 [2] | binding (pull down) to NBF-1 and NBF-2 of SUR2A [3] | KATP whole-cell currents versus control cells ([1]; HIT cells transfected with (overexpressing) syntaxin-1A, pipette 0.3 mM ATP, 15 min) | KATP whole-cell current at t=15 min relative to t=0 min ([1]; syntaxin-1A overexpressing HIT cells (>3 fold by Western), pipette 0.3 mM ATP, measured at −140 mV) | KATP whole-cell currents versus control beta cells ([4]; recombinant syntaxin-1A 10^−3 M dialyzed through patch pipette, 0.3 mM ATP, 15 min) | inhibitory effect on mean KATP whole cell-currents (channel activity) ([4]; recombinant syntaxin-1A, 0.3 mM ATP in pipette, measured at −120 mV, recorded for 15 minutes) |
| --- | --- | --- | --- | --- | --- | --- | --- |
| MgADP [reference compound] | 46 |  |  |  |  |  |  |
| syntaxin-1A: endogenous SNARE superfamily protein; recombinant rat syntaxin-1A (SEQ ID NO: 1) or overexpressed in cells |  | directly ‘pulled’ down | directly ‘pulled’ down | reduced compared with the control cells | remained unchanged | reduced compared with the control beta cells | strongly inhibits |
